Measured values published in patent US20110262445A1 (CEPHALON AUSTRALIA, published 2011).

B1: Antibody 98 (antibody, human IgG1, kappa)
heavy chain: not shown
light chain: DIQMTQSPSSVSASVGDRVTITCRASQSISINLHWYQQKPGKAPKLLIYFASQSISGVPSRFSGSGSGTDFSLTINSLQPEDFARYYCQQSNSFPLTFGGGTKVEIKRTVAAPSVFIFPPSDEQLKSGTASVVCLLNNFYPREAKVQWKVDNALQSGNSQESVTEQDSKDSTYSLSSTLTLSKADYEKHKVYACEVTHQGLSSPVTKSFNRGEC
B2: Antibody 99 (antibody, human IgG1, kappa)
heavy chain: not shown
light chain: DIQMTQSPSSVSASVGDRVTITCRASQSISINLHWYQQKPGKAPKLLIYFASQSISGVPSRFSGSGSGTDFSLTINSLQPEDFARYYCQQSNSFPLTFGGGTKVEIKRTVAAPSVFIFPPSDEQLKSGTASVVCLLNNFYPREAKVQWKVDNALQSGNSQESVTEQDSKDSTYSLSSTLTLSKADYEKHKVYACEVTHQGLSSPVTKSFNRGEC
B3: Antibody 100 (antibody, human IgG1, kappa)
heavy chain: not shown
light chain: DIQMTQSPSSVSASVGDRVTITCRASQSISINLHWYQQKPGKAPKLLIYFASQSISGVPSRFSGSGSGTDFSLTINSLQPEDFARYYCQQSNSFPLTFGGGTKVEIKRTVAAPSVFIFPPSDEQLKSGTASVVCLLNNFYPREAKVQWKVDNALQSGNSQESVTEQDSKDSTYSLSSTLTLSKADYEKHKVYACEVTHQGLSSPVTKSFNRGEC
B4: Antibody 101 (antibody, human IgG1, kappa)
heavy chain: not shown
light chain: DIQMTQSPSSVSASVGDRVTITCRASQSISINLHWYQQKPGKAPKLLIYFASQSISGVPSRFSGSGSGTDFSLTINSLQPEDFARYYCQQSNSFPLTFGGGTKVEIKRTVAAPSVFIFPPSDEQLKSGTASVVCLLNNFYPREAKVQWKVDNALQSGNSQESVTEQDSKDSTYSLSSTLTLSKADYEKHKVYACEVTHQGLSSPVTKSFNRGEC
B5: Antibody 102 (antibody, human IgG1, kappa)
heavy chain: not shown
light chain: DIQMTQSPSSVSASVGDRVTITCRASQSISINLHWYQQKPGKAPKLLIYFASQSISGVPSRFSGSGSGTDFSLTINSLQPEDFARYYCQQSNSFPLTFGGGTKVEIKRTVAAPSVFIFPPSDEQLKSGTASVVCLLNNFYPREAKVQWKVDNALQSGNSQESVTEQDSKDSTYSLSSTLTLSKADYEKHKVYACEVTHQGLSSPVTKSFNRGEC
B6: Antibody 103 (antibody, human IgG1, kappa)
heavy chain: not shown
light chain: DIQMTQSPSSVSASVGDRVTITCRASQSISINLHWYQQKPGKAPKLLIYFASQSISGVPSRFSGSGSGTDFSLTINSLQPEDFARYYCQQSNSFPLTFGGGTKVEIKRTVAAPSVFIFPPSDEQLKSGTASVVCLLNNFYPREAKVQWKVDNALQSGNSQESVTEQDSKDSTYSLSSTLTLSKADYEKHKVYACEVTHQGLSSPVTKSFNRGEC
B7: Antibody 104 (antibody, human IgG1, kappa)
heavy chain: not shown
light chain: DIQMTQSPSSVSASVGDRVTITCRASQSISINLHWYQQKPGKAPKLLIYFASQSISGVPSRFSGSGSGTDFSLTINSLQPEDFARYYCQQSNSFPLTFGGGTKVEIKRTVAAPSVFIFPPSDEQLKSGTASVVCLLNNFYPREAKVQWKVDNALQSGNSQESVTEQDSKDSTYSLSSTLTLSKADYEKHKVYACEVTHQGLSSPVTKSFNRGEC
B8: Antibody 105 (antibody, human IgG1, kappa, V domains shown)
VH: EVQLVQSGAEVKKPGATVKISCTASGYTFSDYYLHWVRQAPEKGLEWMGWIDPENGDTEYAPKFQGRVTITADTSTDTGYLELSSLRSEDTAVYYCAANKELRYFDVWGQGTLVTVSS
VL: DIQMTQSPSSVSASVGDRVTITCRASQSISINLHWYQQKPGKAPKLLIYFASQSISGVPSRFSGSGSGTDFSLTINSLQPEDFARYYCQQSNSFPLTFGGGTKVEIKR
B9: Antibody 106 (antibody, human IgG1, kappa, V domains shown)
VH: EVQLVQSGAEVKKPGATVKISCKASGFTFSDYYLHWVRQAPEKGLEWMGWIDPENGDTEYAPKFQGRVTITADTSTDTGYLELSSLRSEDTAVYYCAANKELRYFDVWGQGTLVTVSS
VL: DIQMTQSPSSVSASVGDRVTITCRASQSISINLHWYQQKPGKAPKLLIYFASQSISGVPSRFSGSGSGTDFSLTINSLQPEDFARYYCQQSNSFPLTFGGGTKVEIKR
B10: Antibody 107 (antibody, human IgG1, kappa, V domains shown)
VH: EVQLVQSGAEVKKPGATVKISCKASGYNFSDYYLHWVRQAPEKGLEWMGWIDPENGDTEYAPKFQGRVTITADTSTDTGYLELSSLRSEDTAVYYCAANKELRYFDVWGQGTLVTVSS
VL: DIQMTQSPSSVSASVGDRVTITCRASQSISINLHWYQQKPGKAPKLLIYFASQSISGVPSRFSGSGSGTDFSLTINSLQPEDFARYYCQQSNSFPLTFGGGTKVEIKR
B11: Antibody 108 (antibody, human IgG1, kappa, V domains shown)
VH: EVQLVQSGAEVKKPGATVKISCKASGYTISDYYLHWVRQAPEKGLEWMGWIDPENGDTEYAPKFQGRVTITADTSTDTGYLELSSLRSEDTAVYYCAANKELRYFDVWGQGTLVTVSS
VL: DIQMTQSPSSVSASVGDRVTITCRASQSISINLHWYQQKPGKAPKLLIYFASQSISGVPSRFSGSGSGTDFSLTINSLQPEDFARYYCQQSNSFPLTFGGGTKVEIKR
B12: Antibody 109 (antibody, human IgG1, kappa, V domains shown)
VH: EVQLVQSGAEVKKPGATVKISCKASGYTFKDYYLHWVRQAPEKGLEWMGWIDPENGDTEYAPKFQGRVTITADTSTDTGYLELSSLRSEDTAVYYCAANKELRYFDVWGQGTLVTVSS
VL: DIQMTQSPSSVSASVGDRVTITCRASQSISINLHWYQQKPGKAPKLLIYFASQSISGVPSRFSGSGSGTDFSLTINSLQPEDFARYYCQQSNSFPLTFGGGTKVEIKR
B13: Antibody 110 (antibody, human IgG1, kappa, V domains shown)
VH: EVQLVQSGAEVKKPGATVKISCKASGYTFSDYYLHWVKQAPEKGLEWMGWIDPENGDTEYAPKFQGRVTITADTSTDTGYLELSSLRSEDTAVYYCAANKELRYFDVWGQGTLVTVSS
VL: DIQMTQSPSSVSASVGDRVTITCRASQSISINLHWYQQKPGKAPKLLIYFASQSISGVPSRFSGSGSGTDFSLTINSLQPEDFARYYCQQSNSFPLTFGGGTKVEIKR
B14: Antibody 112 (antibody, human IgG1, kappa, V domains shown)
VH: EVQLVQSGAEVKKPGATVKISCKASGYTFSDYYLHWVRQAPEKGLEWIGWIDPENGDTEYAPKFQGRVTITADTSTDTGYLELSSLRSEDTAVYYCAANKELRYFDVWGQGTLVTVSS
VL: DIQMTQSPSSVSASVGDRVTITCRASQSISINLHWYQQKPGKAPKLLIYFASQSISGVPSRFSGSGSGTDFSLTINSLQPEDFARYYCQQSNSFPLTFGGGTKVEIKR
B15: Antibody 113 (antibody, human IgG1, kappa, V domains shown)
VH: EVQLVQSGAEVKKPGATVKISCKASGYTFSDYYLHWVRQAPEKGLEWMGWIDPENGDTEYAPKFQGRATITADTSTDTGYLELSSLRSEDTAVYYCAANKELRYFDVWGQGTLVTVSS
VL: DIQMTQSPSSVSASVGDRVTITCRASQSISINLHWYQQKPGKAPKLLIYFASQSISGVPSRFSGSGSGTDFSLTINSLQPEDFARYYCQQSNSFPLTFGGGTKVEIKR
B16: Antibody 114 (antibody, human IgG1, kappa, V domains shown)
VH: EVQLVQSGAEVKKPGATVKISCKASGYTFSDYYLHWVRQAPEKGLEWMGWIDPENGDTEYAPKFQGRVTMTADTSTDTGYLELSSLRSEDTAVYYCAANKELRYFDVWGQGTLVTVSS
VL: DIQMTQSPSSVSASVGDRVTITCRASQSISINLHWYQQKPGKAPKLLIYFASQSISGVPSRFSGSGSGTDFSLTINSLQPEDFARYYCQQSNSFPLTFGGGTKVEIKR
B17: Antibody 115 (antibody, human IgG1, kappa, V domains shown)
VH: EVQLVQSGAEVKKPGATVKISCKASGYTFSDYYLHWVRQAPEKGLEWMGWIDPENGDTEYAPKFQGRVTITTDTSTDTGYLELSSLRSEDTAVYYCAANKELRYFDVWGQGTLVTVSS
VL: DIQMTQSPSSVSASVGDRVTITCRASQSISINLHWYQQKPGKAPKLLIYFASQSISGVPSRFSGSGSGTDFSLTINSLQPEDFARYYCQQSNSFPLTFGGGTKVEIKR

Columns and labels:
[1] = target: T1, human IL-12 (human, UniProt P29460 23-328; P29459 23-219); experiment: ELISA, coated IL-12
T1 construct: Recombinant (Peprotech); FLAG-tagged IL-12 in the flow cytometry assays, biotinylated in the IL-12Rβ2 assay; also called hIL-12
T1 sequence 1: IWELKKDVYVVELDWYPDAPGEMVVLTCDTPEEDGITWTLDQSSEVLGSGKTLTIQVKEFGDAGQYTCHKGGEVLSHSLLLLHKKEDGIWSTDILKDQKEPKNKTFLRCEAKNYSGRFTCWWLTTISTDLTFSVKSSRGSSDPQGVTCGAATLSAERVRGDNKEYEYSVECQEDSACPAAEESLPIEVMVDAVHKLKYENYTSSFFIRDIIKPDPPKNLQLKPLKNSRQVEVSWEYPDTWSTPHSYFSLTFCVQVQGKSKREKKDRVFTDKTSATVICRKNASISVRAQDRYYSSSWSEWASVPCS
T1 sequence 2: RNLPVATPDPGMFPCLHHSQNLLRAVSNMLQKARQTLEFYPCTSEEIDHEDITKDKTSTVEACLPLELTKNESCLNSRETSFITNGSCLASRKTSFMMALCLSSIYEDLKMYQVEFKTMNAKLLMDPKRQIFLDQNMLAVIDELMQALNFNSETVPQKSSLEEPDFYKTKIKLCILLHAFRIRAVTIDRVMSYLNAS
In short: (§1)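 Maxisorp plates were coated overnight at 4° C with cytokine at 1 μg/mL in carbonate buffer pH 9.6, then blocked for 1 hour at 25° C with 1% BSA in PBS. Antibody titrations were allowed to bind for 1 hour at 25° C and detected with goat anti-human IgG or anti-murine immunoglobulin HRP (1:2000, 1 hour), followed by TMB development stopped with 1M HCl. Binding is reported as absorbance. Readings were taken at 450 nm against a 620 nm reference.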

[2] = target: T2, human IL-23 (human, UniProt P29460 23-328; Q9NPF7 20-189); experiment: ELISA, coated IL-23
T2 construct: Recombinant (Ebioscience); HIS-tagged in flow cytometry, biotinylated in some assays; also called hIL-23; rhIL-23
T2 sequence 1: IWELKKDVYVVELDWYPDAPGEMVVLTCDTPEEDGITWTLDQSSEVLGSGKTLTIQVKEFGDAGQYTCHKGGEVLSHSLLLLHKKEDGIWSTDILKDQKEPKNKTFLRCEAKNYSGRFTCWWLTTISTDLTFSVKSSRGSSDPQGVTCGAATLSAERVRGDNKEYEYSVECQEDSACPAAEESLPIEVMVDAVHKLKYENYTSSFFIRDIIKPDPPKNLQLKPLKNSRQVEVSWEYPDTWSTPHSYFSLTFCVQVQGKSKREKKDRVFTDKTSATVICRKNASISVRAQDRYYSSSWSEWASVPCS
T2 sequence 2: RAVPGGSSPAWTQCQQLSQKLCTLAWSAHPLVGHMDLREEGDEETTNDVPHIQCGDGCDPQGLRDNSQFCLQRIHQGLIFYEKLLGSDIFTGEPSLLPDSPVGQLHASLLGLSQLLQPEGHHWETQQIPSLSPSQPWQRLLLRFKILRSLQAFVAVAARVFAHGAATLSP
In short: as §1

Binder	binding result [1]	binding result [2]
B1	binds	binds
B2	binds	binds
B3	binds	binds
B4	binds	binds
B5	binds	binds
B6	binds	binds
B7	binds	binds
B8	binds	binds
B9	binds	binds
B10	binds	binds
B11	binds	binds
B12	binds	binds
B13	binds	binds
B14	binds	binds
B15	binds	binds
B16	binds	binds
B17	binds	binds
